“And” between values parts separate entries of the source, which are not always exact repeats. Identical values can stand only once. One block for each molecule: values may come before it.
Legend:
[1] = molecular target: Cys to Ser mutant 2CPB C53S/C175S, tag-free (Arabidopsis thaliana); assay: nonreducing SDS/PAGE (redox shift visualization); 1 μM (Fig 1) or 1.5 μM (Fig S2) recombinant 2CP incubated with/without 1 mM GSH (50 mM Tris-HCl pH 7.5, 25°C, 30 min), nonreducing SDS/PAGE, Coomassie stain (anti-GSH Western blot in Fig S2); oligomer size read from gel mobility; self-association
[2] = molecular target: the molecule itself; assay: nonreducing SDS/PAGE (redox shift visualization); 1 μM tag-free 2CP incubated with 1 mM GSH and 0.1% (vol/vol) Triton X-100 (partial denaturation), nonreducing SDS/PAGE, Coomassie stain; self-association
[3] = molecular target: the molecule itself; assay: nonreducing SDS/PAGE (redox shift visualization); 1 μM (Fig 1) or 1.5 μM (Fig S2) recombinant 2CP incubated with/without 1 mM GSH (50 mM Tris-HCl pH 7.5, 25°C, 30 min), nonreducing SDS/PAGE, Coomassie stain (anti-GSH Western blot in Fig S2); oligomer size read from gel mobility; self-association
[4] = molecular target: the molecule itself; assay: nonreducing SDS/PAGE (redox shift visualization); 1.5 μM 2CP^GS incubated with CYP20-3 (0-5 μM) at 42°C for 15 min, nonreducing SDS/PAGE, Coomassie stain and anti-GSH Western blot; self-association of the 2CP after the treatment
[5] = molecular target: the molecule itself; assay: nonreducing SDS/PAGE with Western blot of plant extracts; total leaf protein extracts of Arabidopsis (WT Col-0, 2cpa, 2cpb, cyp20-3; untreated or 0, 3, 6 h post wounding), nonreducing SDS/PAGE, Western blot with anti-2CPA or anti-GSH antibody; oligomer size read from gel mobility

stoichiometry N [1]: 10
Molecule: Cys to Ser mutant 2CPB C53S/C175S, tag-free (enzyme)

B1: GSH-glutathionylated 2-Cys peroxiredoxin A (2CPA^GS), tag-free recombinant (enzyme, Arabidopsis thaliana)
chain: GSHMKAQADDLPLVGNKAPDFEAEAVFDQEFIKVKLSDYIGKKYVILFFYPLDFTFVCPTEITAFSDRHSEFEKLNTEVLGVSVDSVFSHLAWVQTDRKSGGLGDLNYPLISDVTKSISKSFGVLIHDQGIALRGLFIIDKEGVIQHSTINNLGIGRSVDETMRTLQALQYIQENPDEVCPAGWKPGEKSMKPDPKLSKEYFSAI
modifications: S-glutathionylated by GSH (mixed disulfide GS-S on a Cys; the discussion names the resolving Cys, CR^53)
notes: four nonnative residues (Gly, Ser, His, Met) left at the N terminus after thrombin removal of the His-tag; C53 is C119 and C175 is C241 in Q96291; source: E. coli BL21 (DE3), purified (Ni-NTA), His-tag removed with thrombin, incubated with GSH; not shown: His-tag, N-terminal, cleaved
stoichiometry N [2]: 10 | stoichiometry N [3]: 2

B2: GSH-glutathionylated 2-Cys peroxiredoxin B (2CPB^GS), tag-free recombinant (enzyme, Arabidopsis thaliana)
chain: GSHMKAQADDLPLVGNKAPDFEAEAVFDQEFIKVKLSEYIGKKYVILFFYPLDFTFVCPTEITAFSDRYEEFEKLNTEVLGVSVDSVFSHLAWVQTDRKSGGLGDLNYPLVSDITKSISKSFGVLIPDQGIALRGLFIIDKEGVIQHSTINNLGIGRSVDETMRTLQALQYVQENPDEVCPAGWKPGEKSMKPDPKLSKEYFSAI
modifications: S-glutathionylated by GSH (mixed disulfide GS-S on a Cys)
notes: four nonnative residues (Gly, Ser, His, Met) left at the N terminus after thrombin removal of the His-tag; C53 is C126 and C175 is C248 in Q9C5R8; source: E. coli BL21 (DE3), purified (Ni-NTA), His-tag removed with thrombin, incubated with GSH; not shown: His-tag, N-terminal, cleaved
stoichiometry N [4]: 10 | stoichiometry N [3]: 20

B3: 2-Cys peroxiredoxin B (2CPB), tag-free recombinant, not glutathionylated (enzyme, Arabidopsis thaliana)
chain: GSHMKAQADDLPLVGNKAPDFEAEAVFDQEFIKVKLSEYIGKKYVILFFYPLDFTFVCPTEITAFSDRYEEFEKLNTEVLGVSVDSVFSHLAWVQTDRKSGGLGDLNYPLVSDITKSISKSFGVLIPDQGIALRGLFIIDKEGVIQHSTINNLGIGRSVDETMRTLQALQYVQENPDEVCPAGWKPGEKSMKPDPKLSKEYFSAI
notes: four nonnative residues (Gly, Ser, His, Met) left at the N terminus after thrombin removal of the His-tag; C53 is C126 and C175 is C248 in Q9C5R8; also called 2-CysPRX B; 2CP isoform B; source: E. coli BL21 (DE3), purified (Ni-NTA), His-tag removed with thrombin; not shown: His-tag, N-terminal, cleaved
stoichiometry N [3]: 10 and 20

B4: 2-Cys peroxiredoxin A (2CPA), tag-free recombinant, not glutathionylated (enzyme, Arabidopsis thaliana)
chain: GSHMKAQADDLPLVGNKAPDFEAEAVFDQEFIKVKLSDYIGKKYVILFFYPLDFTFVCPTEITAFSDRHSEFEKLNTEVLGVSVDSVFSHLAWVQTDRKSGGLGDLNYPLISDVTKSISKSFGVLIHDQGIALRGLFIIDKEGVIQHSTINNLGIGRSVDETMRTLQALQYIQENPDEVCPAGWKPGEKSMKPDPKLSKEYFSAI
notes: four nonnative residues (Gly, Ser, His, Met) left at the N terminus after thrombin removal of the His-tag; C53 is C119 and C175 is C241 in Q96291; also called 2-CysPRX A; 2CP isoform A; source: E. coli BL21 (DE3), purified (Ni-NTA), His-tag removed with thrombin; not shown: His-tag, N-terminal, cleaved
stoichiometry N [4]: 2

B5: endogenous GSH-glutathionylated 2CPA (2CPA^GS) in Arabidopsis leaf extracts (enzyme, UniProt Q96291 66-266, looked up)
chain: KAQADDLPLVGNKAPDFEAEAVFDQEFIKVKLSDYIGKKYVILFFYPLDFTFVCPTEITAFSDRHSEFEKLNTEVLGVSVDSVFSHLAWVQTDRKSGGLGDLNYPLISDVTKSISKSFGVLIHDQGIALRGLFIIDKEGVIQHSTINNLGIGRSVDETMRTLQALQYIQENPDEVCPAGWKPGEKSMKPDPKLSKEYFSAI
modifications: S-glutathionylated (as the paper names it: 2CPA^GS)
notes: 2-Cys peroxiredoxin A (2CPA), Arabidopsis thaliana, At3g11630, endogenous plastid protein; Bands in WT extracts detected with 2CP antibody and put down to 2CPA^GS by the authors; source: endogenous, Arabidopsis (Col-0) leaf total protein extract
stoichiometry N [5]: 2

B6: His-tagged GSH-glutathionylated 2-Cys peroxiredoxin B (His-tagged 2CPB^GS) (enzyme, Arabidopsis thaliana, UniProt Q9C5R8 73-273, looked up)
chain: KAQADDLPLVGNKAPDFEAEAVFDQEFIKVKLSEYIGKKYVILFFYPLDFTFVCPTEITAFSDRYEEFEKLNTEVLGVSVDSVFSHLAWVQTDRKSGGLGDLNYPLVSDITKSISKSFGVLIPDQGIALRGLFIIDKEGVIQHSTINNLGIGRSVDETMRTLQALQYVQENPDEVCPAGWKPGEKSMKPDPKLSKEYFSAI
modifications: S-glutathionylated by GSH (mixed disulfide GS-S on a Cys)
notes: C53 is C126 and C175 is C248 in Q9C5R8; Tagged version cloned BamHI/HindIII into pET28a; source: E. coli BL21 (DE3), purified (Ni-NTA), incubated with GSH
stoichiometry N [3]: 20 and 10

Source: publication PMC7409537, “CYP20-3 deglutathionylates 2-CysPRX A and suppresses peroxide detoxification during heat stress” (Life Science Alliance, 2020)
